Reference: the supplement of paper PMC9170038

Tested on: K4 kissing-loop RNA reporter
Assay: apparent KD of K4 kissing-loop reporter; higher = weaker reporter binding
Settings: Eterna round: R107
Experimental: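 RNA-MaP round R107: designed RNA switches with theophylline, tryptophan, arginine or FMN aptamers are transcribed on-chip within common flanks. They are titrated with a labelled K4 kissing-loop RNA reporter in RNA-MaP buffer (100 mM Tris pH 7.5, 80 mM KCl, 4 mM MgCl2), without ligand or with the indicated ligand. Median apparent KD per design.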

[1] = input ligand: theophylline 20 uM
[2] = input ligand: tryptophan 2.4 mM
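Also: bound reporter read as fluorescence of individual clusters on recovered sequencing chips by microscopy, with normalized cluster intensities fitted with a binding model.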

Sequence	apparent KD of K4 kissing-loop reporter (input ligand: FMN 200 uM) [nM]	apparent KD of K4 kissing-loop reporter (input ligand: arginine 13.2 mM) [nM]	apparent KD of K4 kissing-loop reporter (input ligand: none) [nM]	apparent KD of K4 kissing-loop reporter [1] [nM]	apparent KD of K4 kissing-loop reporter [2] [nM]
UGAUACCAGACGGCCGCCACUGCACCAGUCAAUGACUGAGCGCGGUGGCGCUCAGUGAUGUUGAGCAGGACCGGGUCUGGUAUCU [Mod of Eli's TrypBX 8 v4]	147	117	136	145	93.9
GCGUUAGUACUCGAUACCAGACCUCUAGUAGUGAUGUUGCUUGGCGAAGGCCUCGAACGAGUCCCUUGGCAGCGAGGAAAGAGGA [theeternabot_sameState_KL_Theo_B_4]	506	387	584	376	450
AAGCAUUGGUCUGAUACCAGUUGAUGACGAAUACGUCAACUGGAGUGAUGUUCCUAAAACAACCCUUGGCAGCAGACCGAUGCAA [MAT - Same State Theophlline B - Mod of Eli - D2]	761	704	835	750	838
AACUCUCAGACAUUUGAGUGAUGUUCAGGCCGAGGACCGGUACGGCCGCCACUCGGGUCUGAGAGAGGUUAUCAAAGAUAGCCAA [Omei KL Tryp A SS A v6]	467	179	234	214	385
AUUCUAUUGUGAAGGAGCGCGUAUAGUAGUGAUGUUACUAUAAUAAUAGAUAUUUAAUUCUCGCAGGUAGGUCGCACAAUAUAUA [JR_Nu_ExcArginiB_Sub025]	102	82.6	96.3	85.6	92
CGAAAUAGAACGGCCGCCACUGUAAGUCCUGACAGUAAGUGAUGUUUGAAAGAUUCGGGUAUUCGCAGGACCGGGUUCGUCAUAA [theeternabot_sameState_KL_Trp_B_13]	886	844	1260	759	754
UGAUAGGACAGAAGGAGCGGAGCUGGUCAAAGACCAGCAAUACGUUAAAUAGGAGUGAUGUUCCAGGUAGGUCGCUGUCCUAUCU [ArgBX 28 #SwitchBubble #StaticStem]	131	121	121	101	87.9
GGUUUAUAGGAGGAUACCAGUACAAAUAAAGUACAUUAAUAGUAGAGUGAUGUUCUAAAGUACCCUUGGCAGCUUAGAUUAAGUU [ExTheophylB.G]	92.6	181	111	188	76.4
AUGGCACGACUUGCCCACAAUGUCUAUGCCCGAGGACCGGUACGGCCGCCACUCGGAUGCCGUGUCUUAUUAGUGAUGUUGAUAC [theeternabot_sameState_KL_Trp_A_4]	355	204	411	355	199
GGUAGCAUGGCGGCCGCCACUAAUACUUCGUAGCCUGUAGCCGGCUUCGUAGAGUGAUGUUCUAUUAGGACCGGGCCAUGCUACC	361	520	450	526	493
AGUGAUGUGGGAAGGAGCGGUAGAUGAGUUCAGUGAUGUUGAAGUGAUGCUGUAGUGAUGUGCCAGGUAGGUCGCCUAGAUGUUA [KL-XARG B24]	353	162	258	130	207
AAUAAGCGCGGAAGGAGCGCCGCCAGUGAUGUUGGGAGUUAGAUACCAGUGAUGUUGGGCCGGCAGGUAGGUCGCCGCAAAGCUU [Exclusion Arginine B Gf 14]	208	86.5	165	137	138
UGAUACCAGACGGCCGCCACUCCCGUAAGUCAAAGACUUACCAAGAGAAUCGUCCAGUGAUGUUGGAGGACCGGGUCUGGUAUCU [FiskerMod 8 - Jieux - Exclusion - Tryptophan B]	922	845	998	732	682
AAUUUAUUAACUGAUACCAGACUUAAUGAAUUGUAAAUUACUAGUGAUGUUAGUGAAUCUGUCCCUUGGCAGCAGUAUUUAUUAA [JR_ExcTheophyB_Sub010]	144	209	173	208	124
CGCCGUAAGGCGGUCGCUCCCACUCCGGAAGGAGCGCCCGUAAGGGCAGGUAGGUCGCCGGAGUGAUGUUCCGGUGGAGGGACCG [#2 Exclusion - Arginine A Attempt #8 (Inspired by Omei)]	323	274	339	352	330
AAGGUUCGUGGAAGGAGCGCCCGUGCGACUCGUUCAGUAAGUGAAGUCCGAGUGAUGUUCGGGCAGGUAGGUCGCCACGGGCAAA [Usontezaon]	196	137	160	123	157
AAUUUAGUGACGGCCGCCACUAUGGUGAUUUAUUUGUUUGAGUGAUGUUUUGAUGUUUGAUUUUGUAGGACCGGGUUAGGUGAUG [aaacmullin]	355	293	364	354	279
CUUCGAUUAACAGAUACCAGUCACUUUGGAGCCACACACAAGUGAGUGAUGUUCACUUGUGACCCUUGGCAGCUGUUAGUCGAAG [Theo B Ex t1]	92.8	75.4	83.4	87.6	88.1
CCCAAAAUAUGCAGUGAUGUUGCAACCGAUACCAGUAUCGAAAGAUACCCUUGGCAGCGGAAAACCGCUACGUAAUUUAAAAGGG [Ex Theophylline A K4 17]	308	318	311	603	254
CGUAGUUGGGCGGCCGCCACUUGAACAGCUUUGCCAAAGGCAGAGCUCUAGAGUGAUGUUCUGGCAAGGACCGGGUCCAACUACA [#02 K4 Tryptophan B Same State]	1270	777	1240	822	423
AAAAUAAUCCAGUGAUGUUGGUUUCCAGAUACCAGCGACGAAAGUCGCCCUUGGCAGCUGUGGACGUACAAAAUAAGUACGUCCU	318	362	359	276	300

Sequence	apparent KD of K4 kissing-loop reporter (input ligand: FMN 200 uM) [nM]	apparent KD of K4 kissing-loop reporter (input ligand: arginine 13.2 mM) [nM]	apparent KD of K4 kissing-loop reporter (input ligand: none) [nM]	apparent KD of K4 kissing-loop reporter [1] [nM]	apparent KD of K4 kissing-loop reporter [2] [nM]
AAGCAGUCUCUUGUAGUCAUCGAAGAUGAACGAGGACCGGUACGGCCGCCACUCGGAGUGAUGUUCCGAAGACUGCAAAAUAAAA [MatMod 17 - Jieux - Exclusion - Tryptophan A]	581	422	1010	765	180
UACUAUAUUCUGUCGUUUUUAUUAGUUUGUCAGGAUAUCGUUUAUUCGAGAAGGGACACUGUCUAGUGAUGUUAGACAUUUCUUU [#04 K4 FMN A Exclusion]	68.3	90.7	88.5	87	75.5
AGGGUUUAACACGAUACCAGCCUGGAGGCCAGUGAUGUUGGCCGAUUUGAACAGAAUUAAGGCCCUUGGCAGCGUCUUUAAAACC [Biarat]	143	152	167	165	153
AGACUACUGAUAGGAUAUAACAUCCUAGUCGUAUACCGAAAGGUAUACGAUAUCCUUCUAGUGAUGUUAGAAGGGUCGGUAGUCA [Omei KL FMN B Exc B v10]	113	85.5	103	88.3	98.4
AAGCCAGAGAUUGCUGCGGGUUCCAGAGAUACCAGCCGUAUUGAAGGCCCUUGGCAGCUCGAGUGAUGUUCGAGCCGUCUCCGGC [Onte]	111	110	114	116	113
GGCGAUGAGUGAUGUUCAAAGAAUAAUGAUACCAGCUGAUGUCGAAGCCCUUGGCAGCAUAGAUACACCAAGUGAUGGUAAUGCC [Default title]	193	209	237	235	143
AGUGCACUGUCAGGAUAUAUACAGUGAUGUUGUGUAUGUCAGCAAGUCAAAGACUUGCUAUUUUGUGUAGAAGGGACUGUGUACA [whbob_Ex_FMNB__2th221]	385	156	176	155	177
CUUGAUGGAAACAUCGAGUAGAUUACUGAUACCAGUAUCGAUAGAUACCCUUGGCAGCAGAAUCAGUGAUCACGAGUGAUGUUCG [Ex Theophylline A K4 8]	525	441	529	451	484
UAGUCCUAGUGAUGGUUAUCACGUGGUGGGCGAGGACCGGUACGGCCGCCACUCGACUUUGCAGUGAUGUUGCAAACCGGACAAU [Exclusion - Tryptophan A (Freestyle 18)]	228	278	237	287	237
GUUGCAGCCCGUGAUACCAGCAUCGGUCGCCGGGUCCAGUGAUGUUGGGCUUGCGUUCUAUGCCCUUGGCAGCGCGGCCUGACAG [Qulaanar]	415	104	174	393	415
AGUACGGCAAACUUGCAACAAGCCGUACCACGAGGACCGGUACGGCCGCCACUCGAUAACUUGCAGUGAUGUUGCAAGUAAGAAU [(T)''-(K)'-(T)'-(T1)-(T2)-(K1)-(K2)_Design5]	161	140	169	226	209
AUCGAUAUCAGAGGAUAUGCUUAAUAGAUUUAUUAUUAUCUAUUAUGCAGUGAUGUUGCAUAUUUUGCAGAAGGCUGAUUUCGAA [JR_SSFMNB_Sub019]	124	433	447	429	403
GGAUCCACCAGUGAUGUUGGAGAAAACUUCAAGGAUAUGACGAAAGUCAGAAGGUGGUAGACUGGUCAAAGUCCGGUCGGAUCCA [FmnA10 U29+U66]	658	120	459	147	194
UAGUCCUAGUGAUGGUCAUCACGUGGCGGGCGAGGACCGGUACGGCCGCCACUCGACUUUGCAGUGAUGUUGCAAACCGGACAAU [Exclusion - Tryptophan A (Freestyle 20)]	144	134	132	136	191
AAUAUAAAGCAGUGAUGUUGCUUAUGAGAAGGAGCGCACGAAAGUGCAGGUAGGUCGCUCAGCCAAGUGGACGAAAACGUCCACA [whbob_SS_Arginine_A_sa106]	82.1	92.5	86.3	85.3	72.1
UCCUAGGCUCGAAAGAGCCUAGGAUUAUCUCAGGAUAUCCGGAAACGGAGAAGGGAGAAACUAGUGAUGUUAGGGAUUCCCUAUU	574	184	213	259	137
UCUUAACUAAAAUAAUGGGAUACCAGUGAUACCAGCCAUAUGCAGGGCCCUUGGCAGCACCCUUGGCAGCCUCGAGUGAUGUUCG [KL-SSTheo-A7 #DoubleAptamer]	283	292	315	247	230
UUAUGUUUAGUUCACCCAGUGAUGUUGGAAGGAGCGUGCGAAAGCACAGGUAGGUCGCCAACCUUAAAGUGUCUUGAUUAUCUAA [JR_Nu_ExcArginiA_Sub029]	400	499	411	386	364
ACGGAGUGAUGUUCCGGCCUCCCAGCAGAUACCAGCAGUCGCGAUUGCCCUUGGCAGCUGUCCGCGGCAUCCACUUGUAGCGGUA [theeternabot_exclusion_KL_Theo_A_12]	223	173	204	222	197
UCGACAGUGAACGAUACCAGCGUCACGUGGCUGGUGGUCACAUGAGUGAUGUUCAUGUAACGCCCUUGGCAGCGUGCACGUAUCA [KL-XTheo-B8]	141	127	133	125	129
AAAAUAAGCCAGUGAUGUUGGUAGCCAGAUACCAGCGACGAAAGUCGCCCUUGGCAGCUGUGGACGUACAAAAUAAGUACGUCCU	1010	751	928	711	723
